The source of these data is paper PMC5225439, “Nucleoplasmin-like domain of FKBP39 from Drosophila melanogaster forms a tetramer with partly disordered tentacle-like C-terminal segments” (Scientific Reports, 2017).

Data set [1] concerns the molecule itself. Nature of the data set: SEC-MALS; 100 μl of 1 mg/ml FKBP39 on Superdex 200 Increase 10/300 in buffer C (50 mM Na2HPO4, 150 mM NaCl, pH 7.0), 0.5 ml/min. (SEC sorts molecules by how far they enter the pores of the column.)
Data set [2] concerns the molecule itself. Nature of the data set: AUC; sedimentation velocity, 20 °C, buffer C (50 mM Na2HPO4, 150 mM NaCl, pH 7.0), 0.2 and 0.5 mg/ml protein, 40,000 rpm, absorbance at 280 nm, continuous c(s) distribution in SEDFIT.

B1: 39-kDa FK506-binding protein (FKBP39) from Drosophila melanogaster, full-length, with C-terminal 8x His-tag (natural protein, UniProt P54397 1-357, looked up)
chain: MSMFWGLNMKPERKYSQTIIKSFHISGVALDKGQEAKLYLAAEKQEYIVATVTKAIPQVALDLNFSKGDRIMFYTAGDASVSLLGYLHDIDSEDDEDDDQMTIENLLNSKAIKNSKKSEDDEDENESGEEDEEDTDDDSQIIEEYESFLENGEEEDDDDVDEDNEESGEEDEQDSDDSEAEEEQPKAKVAKLSPGASAKKSGKEQNGVAKKEEAKQQQKKKEKPEAKKEQPKAKEPAKQQPASKDPRTITGGVKIVDQVVGKGEEAKQGKRVSVYYIGRLQSNNKTFDSLLKGKPFKFALGGGEVIKGWDVGVAGMKVGGKRVITCPPHMAYGARGAPPKIGPNSTLVFEVELKAVH
notes: N-terminal NPL 1-86, central charged region 87-256, C-terminal FKBD 257-357; Cloned BamHI/HindIII into the modified vector pQE80L-XH; The forward primer puts TCG (Ser) before the FKBP39 ATG, so a few vector-derived residues precede the natural start; also called full-length FKBP39; recombinant FKBP39; source: E. coli BL21(DE3)pLysS, purified (Co2+-TALON resin, Superdex 200 SEC)
Consider B1, for which the stoichiometry N – broadly, a count of units in the complex or per binding partner – in data set [1] was 2; in data set [2], 4.
